Assay results from patent US20090324646A1 (INSTITUT PASTEUR, published 2009).
Where two headings read alike, the source gives them in different places.

How the values were obtained:
[1] = molecular target: histone H3 purified from calf thymus, P68432
[2] = molecular target: peptide mimicking the histone H3 tail carrying pS10 modification
[3] = molecular target: 33P-labeled Erk2 (GST-Erk2 fusion protein phosphorylated in vitro by MEK1)
[4] = molecular target: NF-κB p65 (endogenous, Caco 2 nuclear extracts) (human, UniProt Q04206 1-551); assay: supershift EMSA of Caco 2 nuclear extracts with anti-p50 and anti-p65 antibodies
[5] = tested on: 33P-labeled Erk2 (GST-Erk2 fusion protein phosphorylated in vitro by MEK1); remark: listed apart in the source

Sequence of NF-κB p65 (endogenous, Caco 2 nuclear extracts) (Q04206 whole entry, the tested form may be a part): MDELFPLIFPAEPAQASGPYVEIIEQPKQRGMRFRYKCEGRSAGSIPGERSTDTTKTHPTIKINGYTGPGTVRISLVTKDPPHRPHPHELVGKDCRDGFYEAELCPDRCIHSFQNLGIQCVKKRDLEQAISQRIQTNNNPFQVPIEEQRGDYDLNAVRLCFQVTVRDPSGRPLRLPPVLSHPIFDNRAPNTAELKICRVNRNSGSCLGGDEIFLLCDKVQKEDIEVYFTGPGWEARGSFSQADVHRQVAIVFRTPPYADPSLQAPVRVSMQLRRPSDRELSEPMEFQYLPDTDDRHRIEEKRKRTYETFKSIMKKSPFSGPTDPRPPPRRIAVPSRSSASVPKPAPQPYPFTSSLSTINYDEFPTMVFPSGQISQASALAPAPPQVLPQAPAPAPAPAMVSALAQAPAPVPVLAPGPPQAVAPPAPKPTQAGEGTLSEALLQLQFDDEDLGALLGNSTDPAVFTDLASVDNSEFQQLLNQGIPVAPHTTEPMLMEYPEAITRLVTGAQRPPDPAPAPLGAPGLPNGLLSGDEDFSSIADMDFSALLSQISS

B1: lambda phosphatase (protein)
chain: MRYYEKIDGSKYRNIWVVGDLHGCYTNLMNKLDTIGFDNKKDLLISVGDLVDRGAENVECLELITFPWFRAVRGNHEQMMIDGLSERGNVNHWLLNGGGWFFNLDYDKEILAKALAHKADELPLIIELVSKDKKYVICHADYPFDEYEFGKPVDHQQVIWNRERISNSQNGIVKEIKGADTFIFGHTPAVKPLKFANQMYIDTGAVFCGNLTLIQVQGEGA
in vitro dephosphorylation (Western blot, anti-metK9-pS10 antibody) [1]: in contrast to the lambda phosphatase, OspF did not directly dephosphorylate these substrates | in vitro dephosphorylation of peptide [2]: in contrast to the lambda phosphatase, OspF did not directly dephosphorylate these substrates

B2: OspF phosphatase (purified recombinant protein) (protein)
chain: MPIKKPCLKLNLDSLNVVRSEIPQMLSANERLKNNFNILYNQIRQYPAYYFKVASNVPTYSDICQSFSVMYQGFQIVNHSGDVFIHACRENPQSKGDFVGDKFHISIAREQVPLAFQILSGLLFSEDSPIDKWKITDMNRVSQQSRVGIGAQFTLYVKSDQECSQYSALLLHKIRQFIMCLESNLLRSKIAPGEYPASDVRPEDWKYVSYRNELRSDRDGSERQEQMLREEPFYRLMIE
Km [3]: 0.204 µM | Vmax [3]: 9.89 pM/s | dephosphorylation of 33P-labeled Erk2 (gel mobility in SDS-PAGE/autoradiography, Western blot) [3]: Dephosphorylation of Erk2 by both enzymes was confirmed | kcat [3]: 0.0001 s⁻¹ | in vitro dephosphorylation (Western blot, anti-metK9-pS10 antibody) [1]: OspF did not directly dephosphorylate these substrates, even when the enzyme concentration was increased 100 fold | in vitro dephosphorylation of peptide [2]: OspF did not directly dephosphorylate these substrates, even when the enzyme concentration was increased 100 fold

B3: NF-κB p50 (endogenous, Caco 2 nuclear extracts) (other)
chain: MAEDDPYLGRPEQMFHLDPSLTHTIFNPEVFQPQMALPTDGPYLQILEQPKQRGFRFRYVCEGPSHGGLPGASSEKNKKSYPQVKICNYVGPAKVIVQLVTNGKNIHLHAHSLVGKHCEDGICTVTAGPKDMVVGFANLGILHVTKKKVFETLEARMTEACIRGYNPGLLVHPDLAYLQAEGGGDRQLGDREKELIRQAALQQTKEMDLSVVRLMFTAFLPDSTGSFTRRLEPVVSDAIYDSKAPNASNLKIVRMDRTAGCVTGGEEIYLLCDKVQKDDIQIRFYEEEENGGVWEGFGDFSPTDVHRQFAIVFKTPKYKDINITKPASVFVQLRRKSDLETSEPKPFLYYPEIKDKEEVQRKRQKLMPNFSDSFGGGSGAGAGGGGMFGSGGGGGGTGSTGPGYSFPHYGFPTYGGITFHPGTTKSNAGMKHG
binding result [4]: binds

B4: MKP1 (mammalian dual specific phosphatase, Upstate Cell Signaling) (enzyme, UniProt P28562 1-367, looked up, species assumed)
Dual specificity protein phosphatase 1: MVMEVGTLDAGGLRALLGERAAQCLLLDCRSFFAFNAGHIAGSVNVRFSTIVRRRAKGAMGLEHIVPNAELRGRLLAGAYHAVVLLDERSAALDGAKRDGTLALAAGALCREARAAQVFFLKGGYEAFSASCPELCSKQSTPMGLSLPLSTSVPDSAESGCSSCSTPLYDQGGPVEILPFLYLGSAYHASRKDMLDALGITALINVSANCPNHFEGHYQYKSIPVEDNHKADISSWFNEAIDFIDSIKNAGGRVFVHCQAGISRSATICLAYLMRTNRVKLDEAFEFVKQRRSIISPNFSFMGQLLQFESQVLAPHCSAEAGSPAMAVLDRGTSTTTVFNFPVSIPVHSTNSALSYLQSPITTSPSC
Km [5]: 0.229 µM | Vmax [5]: 6.01 pM/s | dephosphorylation of 33P-labeled Erk2 (gel mobility in SDS-PAGE/autoradiography, Western blot) [5]: Dephosphorylation of Erk2 by both enzymes was confirmed | kcat [5]: 0.0006 s⁻¹
